Assay results taken from article doi:10.1101/695700 (bioRxiv, 2019).

B1: vitronectin (natural protein, UniProt P04004 20-478, looked up)
chain: DQESCKGRCTEGFNVDKKCQCDELCSYYQSCCTDYTAECKPQVTRGDVFTMPEDEYTVYDDGEEKNNATVHEQVGGPSLTSDLQAQSKGNPEQTPVLKPEEEAPAPEVGASKPEGIDSRPETLHPGRPQPPAEEELCSGKPFDAFTDLKNGSLFAFRGQYCYELDEKAVRPGYPKLIRDVWGIEGPIDAAFTRINCQGKTYLFKGSQYWRFEDGVLDPDYPRNISDGFDGIPDNVDAALALPAHSYSGRERVYFFKGKQYWEYQFQHQPSQEECEGSSLSAVFEHFAMMQRDSWEDIFELLFWGRTSAGTRQPQFISRDWHGVPGQVDAAMAGRIYISGMAPRPSLAKKQRFRHRNRKGYRSQRGHSRGRNQNSRRPSRATWLSLFSSEESNLGANNYDDYRMDWLVPATCEPIQSVFFFSGDKYYRVNLRTRRVDTVDPPYPRSIAQYWLGCPAPGHL
B2: recombinant HC1 (rHC1), wild type; heavy chain 1 of inter-α-inhibitor (natural protein, human, UniProt P19827 35-672, looked up)
chain: SKSSEKRQAVDTAVDGVFIRSLKVNCKVTSRFAHYVVTSQVVNTANEAREVAFDLEIPKTAFISDFAVTADGNAFIGDIKDKVTAWKQYRKAAISGENAGLVRASGRTMEQFTIHLTVNPQSKVTFQLTYEEVLKRNHMQYEIVIKVKPKQLVHHFEIDVDIFEPQGISKLDAQASFLPKELAAQTIKKSFSGKKGHVLFRPTVSQQQSCPTCSTSLLNGHFKVTYDVSRDKICDLLVANNHFAHFFAPQNLTNMNKNVVFVIDISGSMRGQKVKQTKEALLKILGDMQPGDYFDLVLFGTRVQSWKGSLVQASEANLQAAQDFVRGFSLDEATNLNGGLLRGIEILNQVQESLPELSNHASILIMLTDGDPTEGVTDRSQILKNVRNAIRGRFPLYNLGFGHNVDFNFLEVMSMENNGRAQRIYEDHDATQQLQGFYSQVAKPLLVDVDLQYPQDAVLALTQNHHKQYYEGSEIVVAGRIADNKQSSFKADVQAHGEGQEFSITCLVDEEEMKKLLRERGHMLENHVERLWAYLTIQELLAKRMKVDREERANLSSQALQMSLDYGFVTPLTSMSIRGMADQDGLKPTIDKPSEDSPPLEMLGPRRTFVLSALQPSPTHSSSNTQRLPDRVTGVDTD

What was measured:
[1] = biological target: B2; test: SPR
AUC [2] = biological target: the molecule itself; test: AUC
AUC [3] = biological target: the molecule itself; test: AUC; remark: listed apart in the source

Row | Binder | Kd [1] [µM] | Kd (AUC [2]) [µM] | stoichiometry N (AUC [3])
1 | B1 | ~0.0002 |  | 
2 | B2 |  | 35.3 | 2
